Data on 1 molecule can be found in patent US20260327578A1, “TRANSGLUTAMINASES AND USES THEREOF” (CURIE CO. INC., priority 2023, published 2026).

Data set [1] is described as follows: Thermal stability at 55 °C, specific activity by colorimetric hydroxamate assay. In kind it is biochemical. Here is the method: Tgase activity was measured herein using a colorimetric hydroxamate activity assay (Folk and Cole (1965) J Biol Chemistry 240 (7): 2951-2960). Briefly, the hydroxamate assay uses N-benzyloxycarbonyl-L-glutaminyl-glycine (ZQG) as a low molecular weight amine acceptor substrate and hydroxylamine as an amine donor. In the presence of catalytically active Tgase, the hydroxylamine is incorporated to form Z-glutamylhydroxamate-glycine, which develops a colored complex with iron (III), detectable at 525 nm after incubation at 37° C. for 5-200 minutes. The calibration was performed using L-glutamic acid gamma-monohydroxamate (Millipore® Sigma®) as a standard. One unit of Tgase was defined as the amount of enzyme that catalyzes formation of 1 μmol of the peptide derivative of gamma-glutamylhydroxylamine per minute. Activity of Tgase variants is depicted in Tables 2-4.
A commercially available wild-type Tgase (Ajinimoto®, Activa® TI formulation) formulated at 0.75-1.0% enzyme in maltodextrin was purchased from Amazon.com and dissolved in water at 20% w/v. The concentration of the mature Tgase in the solution was confirmed by high-performance liquid chromatography (HPLC) and the sample was further diluted to 0.1 g/L of enzyme. Following dilution, the enzyme was subjected to the hydroxamate assay as described in Example 4 to determine specific activity. The specific activity of the commercial wild-type Tgase compared to Tgase variant A3 (SEQ ID NO: 4), further comprising an N-terminal methionine, is shown in FIG. 1.
The thermal stability of Tgase variant A3 (SEQ ID NO: 4) compared to the commercial wild-type Tgase was evaluated by incubating the samples at 55° C. and testing the enzyme concentration and activity at various timepoints. Six timepoints were tested: 0, 30, 60, 120, 240, and 480 minutes.
The enzyme concentration was measured by HPLC. The samples were diluted 10-fold in 50 mM phosphate pH 7.4, 100 mM NaCl. The samples were tested by reverse phase using a Zorbax SB300-C8 column with 0.1% trifluoroacetic acid in water (MPA) and 0.08% trifluoroacetic acid in acetonitrile (MPB).
The activity was determined using the colorimetric activity assay described in Example 4A. The specific activity (U/mg) of the samples was calculated using the concentration of each sample as determined per Example 4D (results shown in Table 10).

Data set [2] relates to E. coli (ATCC 8739) / C. albicans (ATCC 10231). Briefly: MIC of permeabilizer co-dosants with and without Tgase variant. In kind it is cell-based. As to the method: E. coli (ATCC 8739) and C. albicans (ATCC 10231) were acquired from the American Type Culture Collection (ATCC) (Manassas, VA) and maintained as −80° C. frozen glycerol stocks.
The following day, the cell density of the saturated cultures was calculated using OD600 and cultures were diluted to 104 to 10^6 CFU/mL in sterile Mueller Hinton broth to generate the inoculum, and 100 μL of the inoculum was combined with 100 μL of serially diluted Tgase variant A3 (SEQ ID NO: 4) at a range of 0.0001-0.05 weight percent. Growth curves were measured by OD600 on a BioTek® Synergy Plate Reader. All test conditions were performed in triplicate. MIC was determined to be […] (0.005% w/v) against E. coli for the enzyme described in SEQ ID NO: 4 using OD600.
For MIC determination of yeast cultures, C. albicans (ATCC 10231) was grown overnight (24 hours) in Sabouraud Dextrose broth at 30° C. The following day, the cell density of the saturated cultures was calculated using OD600 and cultures were diluted to 104 to 10^6 CFU/mL in sterile Sabouraud Dextrose broth media to generate the inoculum, and 100 μL of the inoculum was combined with 100 μL of serially diluted Tgase variant at a range of 0.0001-0.05 weight percent. The cultures were grown overnight at 30° C. and growth curves were measured by OD600 on a BioTek® Synergy Plate Reader. All test conditions were performed in triplicate. MIC was determined to be […] (0.005% w/v) against C. albicans for the enzyme described in SEQ ID NO: 4 using OD600.
Aseptilase activities of Tgase variant A3 (SEQ ID NO: 4) in combination with each of the three permeabilizer co-dosants, polymyxin B, chlorhexidine, and a 10000:4000:1 mixture by weight of sodium hexametaphosphate, phytic acid and chlorhexidine, were tested. […] The experiments were performed as described in Example 5. The co-dosants were added into Tgase variant A3 (SEQ ID NO: 4) solutions at concentrations of 0.125 g/L, 0.05 g/L, and 350 mM, respectively. The results are shown in Table 12 with Tgase concentrations reported within the table at the best MIC.

Data set [3] concerns E. coli. Briefly: Preservative efficacy in body lotion against E. coli. As to conditions: 0.005% in combinations, phenoxyethanol 0.7% alone, 0.3% combined, caprylyl glycol 0.7% alone, 0.35% combined, sodium benzoate 0.5% + EDTA 0.5%, 2% 2:1 propanediol:hexanediol, 0.5% CHA solution. Type of data set: cell-based. As to the method:
A vessel was filled with deionized water, placed under an overhead stirrer set to moderate mixing, and heated to 75-80° C. Glycerin was added to 2% and mixed until dissolved, followed by xanthan gum to 0.2%. At 75-80° C., cetearyl glucoside and cetearyl alcohol were added to 4% and 3%. Once both had melted fully, milk thistle seed oil was added and the batch was homogenized with a Silverson homogenizer with the standard emulsion screen until the batch had turned milky white. The batch was removed from heat and returned to propellor mixing with decreased speed to allow the emulsion to set up. At 40° C., pH was adjusted to pH 5.5-6.0 using citric acid or sodium hydroxide and split into several portions and allowed to finish cooling. Once cooled to room temperature, one portion of the body lotion was left unpreserved and the remaining portions were preserved with one or more substances selected from aseptilase, phenoxyethanol, caprylyl glycol, sodium benzoate, and EDTA. All samples were inoculated with E. coli (10^6 CFU/mL) and C. albicans (10^5 CFU/mL) and plated after 2 and 7 days.

B1: A3: Tgase variant S2P Q50S Q74A K91H Q124L K151R K152R N282M G283A relative to SEQ ID NO: 2 (protein, UniProt P81453 77-407, looked up, variant S2P Q50S Q74A K91H Q124L K151R K152R N282M G283A)
Protein-glutamine …: DPDDRVTPPAEPLDRMPDPYRPSYGRAETVVNNYIRKWQQVYSHRDGRKSQMTEEQREWLSYGCVGVTWVNSGAYPTNRLAFASFDEDRFHNELKNGRPRSGETRAEFEGRVAKESFDEEKGFLRAREVASVMNRALENAHDESAYLDNLRRELANGNDALRNEDARSPFYSALRNTPSFKERNGGNHDPSRMKAVIYSKHFWSGQDRSSSADKRKYGDPDAFRPAPGTGLVDMSRDRNIPRSPTSPGEGFVNFDYGWFGAQTEADADKTVWTHGNHYHAPMASLGAMHVYESKFRNWSEGYSDFDRGAYVITFIPKSWNTAPDKVKQGWP
On to B1, for which the Specific activity in data set [1] (timepoint 0 min) was 46.0 U/mg; in data set [1] (timepoint 30 min), 44.4 U/mg; in data set [1] (timepoint 60 min), 43.3 U/mg; in data set [1] (timepoint 120 min) it was 40.5 U/mg; in data set [1] (timepoint 240 min), 38.9 U/mg; in data set [1] (timepoint 480 min) it was 32.1 U/mg. In data set [1] (up to 480 min, compared to wild-type Tgase, HPLC), the “portion remaining soluble during the heat treatment” value is recorded as “greater portion”. Moreover, the “Aseptilase activity in combination with permeabilizers” value in data set [2] (co-dosed with polymyxin B, chlorhexidine, or hexametaphosphate/phytic acid/chlorhexidine) was “further improved by co-dosing with cell membrane permeabilizers”. In addition, the “concentration of Tgase at the best MIC” value in data set [2] (in combination with 10000:4000:1 hexametaphosphate, phytic acid and chlorhexidine) is reported as 200 ppm; in data set [2] (in combination with Chlorhexidine) it was 200 ppm; in data set [2] (in combination with Polymyxin B) it was 12.5 ppm. For the same molecule, the “Preservative efficacy against E. coli, log reduction” value in data set [3] (day 2, aseptilase 0.01% alone) is given as 1.71 log reduction in CFU/mL; in data set [3] (day 7, aseptilase 0.01% alone), 3.45 log reduction in CFU/mL.
